Laboratory results from article PMC4072508, “Genome-Wide Prediction and Validation of Peptides That Bind Human Prosurvival Bcl-2 Proteins” (PLoS Computational Biology, 2014).

T1: Bfl-1, Q16548
T1 chain: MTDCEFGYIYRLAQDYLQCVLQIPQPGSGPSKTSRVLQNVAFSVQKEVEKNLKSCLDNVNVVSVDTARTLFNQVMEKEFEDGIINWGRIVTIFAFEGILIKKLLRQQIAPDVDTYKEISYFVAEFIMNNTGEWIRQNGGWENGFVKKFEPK

T2: Mcl-1, Q07820
T2 chain: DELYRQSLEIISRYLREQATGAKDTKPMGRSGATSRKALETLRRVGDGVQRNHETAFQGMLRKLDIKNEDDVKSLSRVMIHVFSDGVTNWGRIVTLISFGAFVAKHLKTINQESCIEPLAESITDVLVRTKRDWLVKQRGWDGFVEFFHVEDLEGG


Each binder was assayed against Bcl-xL, Q07817 (assay: peptide SPOT array, c-Myc-tagged receptor at 1 uM or 100 nM, anti-c-Myc-Cy3).
Bcl-xL, Q07817, sequence (Q07817 1-209): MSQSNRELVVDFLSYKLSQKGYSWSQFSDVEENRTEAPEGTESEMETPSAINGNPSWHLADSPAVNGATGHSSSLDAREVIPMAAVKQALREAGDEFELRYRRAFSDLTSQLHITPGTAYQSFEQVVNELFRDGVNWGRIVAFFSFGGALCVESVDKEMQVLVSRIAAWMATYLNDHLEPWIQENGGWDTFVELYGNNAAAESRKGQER

| Binder | SPOT signal as a fraction of Bim BH3's signal on the same receptor and array |
| --- | --- |
| GTAVAYRGAHLRGRGRAVYNTFRAAP [XXXX] | 2.82 |
| RVCPYYLSRNDKQQADIIFMPYNYLL [RTEL1] | 1.3 |
| RLRQLGVAKKDGVLSDNFKGKRIVLV [PPAT] | 1.16 |
| RKDAELLCWDLRQSGYPLWSLGREVT | 0.07 |
| QASREAGAAALRNVLQRLFENYQTQS [CCDC68] | 0.28 |
| PSECETLGSNLGHNADLLNENNILAK [ZFP90] | 0.09 |
| HQAEVQIARKDQCIADQFHRLHVQQH | 0.03 |
| VHKHSRLAEVDQLGSDILPQYKQEAP [KCNH1] | 0.1 |
| FGEYSGISENIILVLDDFWIPETSFI [ROS1] | 0.07 |
| PDKRLTLSQIYQYVLDNFPFYNKSKA [FOXI1] | 0.76 |
| VLELHPGAQRLHIGCDEVYYLGEGEA [HEXDC] | 0.06 |
| LCQLSCVSKLMRDVLGSLLQSRGMVI [FBXO30] | 0.38 |
| FVGYNSTGAEDRHWSDMLANPRRPIA [SYT1] | 0.11 |
| SHFVACMTAILNQMLDQHYSFYIETF [DOCK2] | 0.08 |
| LALLAQPSHLMRQVARSVFGHICSHL [MYBBP1A] | 0.96 |
| HHSSQEMSSEYREYADSFGKCPGGRN [PCYT2] | 0.05 |

| Binder | SPOT signal as a fraction of Bim BH3's signal on the same receptor and array |
| --- | --- |
| YIVLGLRKTTDQKVGKEVAELVGRVG [NLRX1] | 0.32 |
| MPYMEAVIHEIQRFLDVIPMSLARRV [CYP2A6] | 0.14 |
| YFKLFRASGDDRTNGDNYLYEIQLSS [IGF2R] | 0.25 |
| AGYELLIQKFDSLYGDQIDMHRKFVV [ISOC1] | 0.08 |
| EAVTDGLKRADRSFGNALGNCILDKD [RAD52] | 0.05 |
| TGSLCEIATTLSFELDGFLWVKSGSV [CRB1] | 0.07 |
| SMRRNAMGVGDVFEADLFTTRHISHW [DNAH10] | 0.12 |
| LSIIYTLVEIDQNIGDTNLADFTAGL [SLC26A4] | 0.07 |
| HQAEVQIARKLQCILDQFHRLHVQQH | 0.27 |
| GGRVKLVHSALIQLGDSLSHKGNEFW [WDR60] | 0.3 |
| TVATRRLSGFDRTLADRLEGTKELLS [MINA] | 0.29 |
| RKDAELLCWDLRQSLYPLWSLGREVT | 0.09 |
| TRRSMVFARHDREVGDEFRSRHLNST [POFUT2] | 0.85 |
| DSLLWKLAGLDRESGDVVLSGCSTLS [STK11IP] | 0.06 |
| GYPFNDVCQWDIDRADLIFVVFDPTK [SRL] | 0.07 |
| QRKHEGFERDDAALGDKVNSLGETAE [SPTAN1] | 0.08 |

Molecular target: T1, Bfl-1, Q16548
Assay: as above

| Binder | SPOT signal as a fraction of Bim BH3's signal on the same receptor and array |
| --- | --- |
| GTAVAYRGAHLRGRGRAVYNTFRAAP [XXXX] | 1.26 |
| RVCPYYLSRNDKQQADIIFMPYNYLL [RTEL1] | 0.67 |
| RLRQLGVAKKDGVLSDNFKGKRIVLV [PPAT] | 0.44 |
| RKDAELLCWDLRQSGYPLWSLGREVT | 0.05 |
| QASREAGAAALRNVLQRLFENYQTQS [CCDC68] | 0.18 |
| PSECETLGSNLGHNADLLNENNILAK [ZFP90] | 0.03 |
| HQAEVQIARKDQCIADQFHRLHVQQH | 0.01 |
| VHKHSRLAEVDQLGSDILPQYKQEAP [KCNH1] | 0.06 |
| FGEYSGISENIILVLDDFWIPETSFI [ROS1] | 0.04 |
| PDKRLTLSQIYQYVLDNFPFYNKSKA [FOXI1] | 0.41 |
| VLELHPGAQRLHIGCDEVYYLGEGEA [HEXDC] | 0.05 |
| LCQLSCVSKLMRDVLGSLLQSRGMVI [FBXO30] | 0.38 |
| FVGYNSTGAEDRHWSDMLANPRRPIA [SYT1] | 0.07 |
| SHFVACMTAILNQMLDQHYSFYIETF [DOCK2] | 0.06 |
| LALLAQPSHLMRQVARSVFGHICSHL [MYBBP1A] | 0.57 |
| HHSSQEMSSEYREYADSFGKCPGGRN [PCYT2] | 0.03 |

| Binder | SPOT signal as a fraction of Bim BH3's signal on the same receptor and array |
| --- | --- |
| YIVLGLRKTTDQKVGKEVAELVGRVG [NLRX1] | 0.19 |
| MPYMEAVIHEIQRFLDVIPMSLARRV [CYP2A6] | 0.06 |
| YFKLFRASGDDRTNGDNYLYEIQLSS [IGF2R] | 0.29 |
| AGYELLIQKFDSLYGDQIDMHRKFVV [ISOC1] | 0.05 |
| EAVTDGLKRADRSFGNALGNCILDKD [RAD52] | 0.03 |
| TGSLCEIATTLSFELDGFLWVKSGSV [CRB1] | 0.03 |
| SMRRNAMGVGDVFEADLFTTRHISHW [DNAH10] | 0.09 |
| LSIIYTLVEIDQNIGDTNLADFTAGL [SLC26A4] | 0.03 |
| HQAEVQIARKLQCILDQFHRLHVQQH | 0.1 |
| GGRVKLVHSALIQLGDSLSHKGNEFW [WDR60] | 0.36 |
| TVATRRLSGFDRTLADRLEGTKELLS [MINA] | 0.12 |
| RKDAELLCWDLRQSLYPLWSLGREVT | 0.05 |
| TRRSMVFARHDREVGDEFRSRHLNST [POFUT2] | 0.61 |
| DSLLWKLAGLDRESGDVVLSGCSTLS [STK11IP] | 0.04 |
| GYPFNDVCQWDIDRADLIFVVFDPTK [SRL] | 0.05 |
| QRKHEGFERDDAALGDKVNSLGETAE [SPTAN1] | 0.08 |

Molecular target: T2, Mcl-1, Q07820
Assay: as above

| Binder | SPOT signal as a fraction of Bim BH3's signal on the same receptor and array |
| --- | --- |
| GTAVAYRGAHLRGRGRAVYNTFRAAP [XXXX] | 1.6 |
| RVCPYYLSRNDKQQADIIFMPYNYLL [RTEL1] | 1.1 |
| RLRQLGVAKKDGVLSDNFKGKRIVLV [PPAT] | 0.68 |
| RKDAELLCWDLRQSGYPLWSLGREVT | 0.06 |
| QASREAGAAALRNVLQRLFENYQTQS [CCDC68] | 0.2 |
| PSECETLGSNLGHNADLLNENNILAK [ZFP90] | 0.04 |
| HQAEVQIARKDQCIADQFHRLHVQQH | 0.01 |
| VHKHSRLAEVDQLGSDILPQYKQEAP [KCNH1] | 0.13 |
| FGEYSGISENIILVLDDFWIPETSFI [ROS1] | 0.06 |
| PDKRLTLSQIYQYVLDNFPFYNKSKA [FOXI1] | 0.39 |
| VLELHPGAQRLHIGCDEVYYLGEGEA [HEXDC] | 0.05 |
| LCQLSCVSKLMRDVLGSLLQSRGMVI [FBXO30] | 0.26 |
| FVGYNSTGAEDRHWSDMLANPRRPIA [SYT1] | 0.08 |
| SHFVACMTAILNQMLDQHYSFYIETF [DOCK2] | 0.07 |
| LALLAQPSHLMRQVARSVFGHICSHL [MYBBP1A] | 0.57 |
| HHSSQEMSSEYREYADSFGKCPGGRN [PCYT2] | 0.04 |

| Binder | SPOT signal as a fraction of Bim BH3's signal on the same receptor and array |
| --- | --- |
| YIVLGLRKTTDQKVGKEVAELVGRVG [NLRX1] | 0.24 |
| MPYMEAVIHEIQRFLDVIPMSLARRV [CYP2A6] | 0.08 |
| YFKLFRASGDDRTNGDNYLYEIQLSS [IGF2R] | 0.28 |
| AGYELLIQKFDSLYGDQIDMHRKFVV [ISOC1] | 0.07 |
| EAVTDGLKRADRSFGNALGNCILDKD [RAD52] | 0.04 |
| TGSLCEIATTLSFELDGFLWVKSGSV [CRB1] | 0.04 |
| SMRRNAMGVGDVFEADLFTTRHISHW [DNAH10] | 0.09 |
| LSIIYTLVEIDQNIGDTNLADFTAGL [SLC26A4] | 0.06 |
| HQAEVQIARKLQCILDQFHRLHVQQH | 0.1 |
| GGRVKLVHSALIQLGDSLSHKGNEFW [WDR60] | 0.34 |
| TVATRRLSGFDRTLADRLEGTKELLS [MINA] | 0.28 |
| RKDAELLCWDLRQSLYPLWSLGREVT | 0.07 |
| TRRSMVFARHDREVGDEFRSRHLNST [POFUT2] | 1.62 |
| DSLLWKLAGLDRESGDVVLSGCSTLS [STK11IP] | 0.04 |
| GYPFNDVCQWDIDRADLIFVVFDPTK [SRL] | 0.06 |
| QRKHEGFERDDAALGDKVNSLGETAE [SPTAN1] | 0.09 |
